In patent publication US20100172896A1, “HMGB1 PROTEIN INHIBITORS AND/OR ANTAGONISTS FOR THE TREATMENT OF VASCULAR DISEASES” (BIO3 RESEARCH SRL, priority 2001, published 2010):

Legend:
Format in all cases: cell-based
RSMC [1] = assay: Immunofluorescence assay of RSMC morphology and actin cytoskeleton organization
Method: Samples of 15.000-20.000 RSMC, 20-40% confluence, 2 were seeded on glass coverslips in 2 cm wells and cultured for 24 hours in DMEM plus 10% FCS, washed with PBS, and cultured for another 24 hours in DMEM without FCS. RSMC were stimulated with HMGB1 100 ng/ml for increasing time intervals, from 5 to 120 minutes at 37 C. After stimulation, RSMC were fixed for 20 minutes at room temperature with a solution of 3% paraformaldehyde, 2% sucrose in PBS, pH 7.5, followed by three washes with PBS-BSA 0.2%. Cells were permeabilized with 20 mM Hepes pH 7.4, 300 mM saccharose, 50 mM NaCl, 3 mM MgCl2, 0.5% (v/v) Triton X-100 for 3 minutes at 4 C, and washed again three times with PBS-BSA 0.2%. Then, RSMC were incubated with PBS-BSA 2% for. 15 minutes at 37 C, with primary antibodies for 30 minutes at 37 C, washed three times with PBS-BSA 0.2%, and further incubated with PBS-BSA 2% for 15 minutes. At the end, cells were stained with secondary antibodies and/or phalloidin conjugated with rodamin for visualization of filamentous actin; in some cases, DAPI (4′,6-diamidino-2-phenilindolo, Roche) was used to label the nucleus.
After all the subsequent incubation, coverslips were washed three times with PBS-BSA 0.2%, twice with distilled water, mounted with 20% Mowiol in PBS and analysed on a Axiophot microscope (Carl Zeiss).
Fluorescence photographs were taken either on T-Max 400 or EPH P1600X film (Eastman Kodak) using Zeiss 40 and 100 neofluar lenses.
In certain experiments cells were overnight pretreated with antibodies or PT or inhibitors.
Finally, to determine whether the observed effects of HMGB1 on RSMC actually reflect a dynamic transition from resting to motile states, the proportion of cells in each different state was quantified.

RSMC [2] = assay: Chemotaxis assay, modified Boyden chambers, RSMC
Method: Chemotaxis assays were performed using well-known protocols (Degryse et al., 1999, Blood, 94: 649-662).
Modified Boyden chambers were used with filters having 0.5 Am pore size (Corning, Acton, Mass.) and. treated with collagen I (100 Ug/ml in 0.5 M acetic acid) e fibronectin (10 IIg/ml) (Roche). RSMC cells (kind gift of Dr. Marco Bertulli, Bayer Research Laboratories, Milan) were cultured in DMEM serum-free and a sample of 20.000-40.000 cells was added to the upper well of Boyden. chamber. The molecules to be tested were diluted in the same serum-free medium and added to the lower well.
Different HMGB1 preparations were used: HMGB1 purified from calf thymus (kind gift of J. Bernues, C.S.I.C., Barcelona, Spain), E. coli expressed […], and a lightly modified HMGB1 form (containing EAEAYVEF aminoacids bound to the Nterminus) produced in yeast Pichia pastoris (Mistry et al., 1997, Biotechniques, 22: 718-729).
If necessary, the polyclonal rabbit anti-HMGB1 (Pharmingen B D, Torrey Pines, Calif.), the pertussis toxin (PT) from Bordetella pertussis (kind gift of Dr. M. G. Pizza, I.R.I.S., Siena) or the inhibitors were added in both wells.
Overnight cell migration was allowed at 37 C, then cells remaining on the upper surface of filters were scraped off and filters were fixed in methanol and stained in a solution of 10% crystal violet in 20% methanol. All experiments were performed at least twice in triplicate.
Results, as shown in FIGS. 1-A, 1-B, 1-C, 1-D, are the mean±SD of the number of cells counted in 10 high power fields per filter and expressed as fold over control. To random cell migration (i.e., migration in the absence of chemoattractant) was given the arbitrary value of 100%.
Statistical analysis was performed using Student's t test for pairwise comparisons of treatments, or an ANOVA model for the evaluation of treatments with increasing doses of a reagent.
Knowing that many chemoattractants act via membrane receptors associated to heterotrimeric GTP binding proteins (G proteins), whether G proteins could be implicated in HMGB1 signaling was tested. […] RSMC were pre-treated with PT or with mPT (50 ng/ml) for 6 hours, thus stimulated with HMGB1 (100 ng/ml), Box A or Box B (10 ng/ml) for 30 minutes.
Chemotaxis assays were performed as previously described. The data represent the mean±SD and the value of 100% corresponds to basal migration in the absence of any stimulator.

phosphorylated ERK1/2 = assay: ERK1/2 phosphorylation and nuclear translocation in RSMC (immunostaining); parameters: inhibition of HMGB1-induced ERK phosphorylation and nuclear translocation: dose or concentration left out as unconfirmed
Method: Afterwards, whether the HMGB1-induced signaling involves the MAP kinase pathway, was investigated; in fact, it is known that these proteins are activated by RAGE, and they have a direct role in the regulation of the intracellular motility machinery. RSMC were pretreated with PD98059 ([…]) for one hour or were not pre-treated, stimulated for 30 minutes with HMGB1 from calf thymus (100 ng/ml) and stained with specific antibodies against phosphorylated ERK1/2 (New England Biolabs, Beverly, Mass.) and DAPI. A separate sample of cells was stained with TRITC-phalloidin to visualize the reorganization of cytoskeleton. […] Moreover, PD98059, the selective inhibitor of MEK, the upstream regulator of ERK, inhibits HMGB1-induced ERK phosphorylation and. nuclear translocation, as well as RSMC migration and cytoskeleton reorganization.

[3] = tested on: Mouse embryonic fibroblasts; assay: Chemotaxis assay on fibroblasts, modified Boyden chambers
Method: Chemotaxis assays were performed using well-know protocols (Degryse et al., 1999, Blood, 94:64. 9-662). Modified Boyden chambers were used with filters having 0.5 ym pore size (Corning, Acton, Mass.) and treated with collagen I (100 pg/ml in 0.5 M acetic acid) and fibronectin (10 IIg/ml) (Roche). Mouse embryonic fibroblasts were cultured following well-known protocols (Calogero et al., 1999, Nat. Genet., 22: 276280) and after 24 hours of serum starvation, a sample of 20.000-40.000 cells was added to the upper well of Boyden. chamber. E. Coli expressed recombinant-HMGB1 was diluted in the same serum-free medium and added to the lower well. Anti-RAGE antibodies (1000 ng/ml) (kind gift of Dr. A. M. Schimdt, Columbia University, NY) were added in both wells.
Overnight cell migration. was allowed at 37 C, then cells remaining on the upper surface of filters were scraped off and filters were fixed in methanol and stained in a solution of 10% crystal violet in 20% methanol. All experiments were performed at least twice in triplicate.
Results, as shown in FIG. 10 are the mean W SD of the number of cells counted in 10 high power fields per filter and expressed as fold over untreated control. To random cell migration (i.e. migration in absence of chemoattractant) was given the arbitrary value of 100%.
Statistical analysis was performed using an ANOVA model for the evaluation of treatments with increasing doses of a reagent. […] Anti RAGE antibodies (1000 ng/ml) totally block the migratory response (right side of the graphic of FIG. 10) showing that this is specifically due to HMGB1.

[4] = HMGB1 100 ng/ml, one hour after stimulation

COc1cccc(-c2cc(=O)c3ccccc3o2)c1N [PD98059, reference compound]
inhibition of HMGB1-induced cytoskeletal reorganization and morphological change of RSMC (RSMC [1]; cells pretreated with antibodies, PT or inhibitors): inhibits
inhibition of HMGB1-induced RSMC migration (RSMC [2]; inhibitor in both wells or pre-treatment, HMGB1 as chemoattractant): inhibits
inhibition of HMGB1-induced ERK phosphorylation and nuclear translocation (phosphorylated ERK1/2; pretreated with PD98059 for one hour): inhibits

B1: HMGB1 from calf thymus: HMGB1 purified from calf thymus (protein, UniProt P10103 2-215, looked up)
High mobility group protein B1: GKGDPKKPRGKMSSYAFFVQTCREEHKKKHPDASVNFSEFSKKCSERWKTMSAKEKGKFEDMAKADKARYEREMKTYIPPKGETKKKFKDPNAPKRPPSAFFLFCSEYRPKIKGEHPGLSIGDVAKKLGEMWNNTAADDKQPYEKKAAKLKEKYEKDIAAYRAKGKPDAAKKGVVKAEKSKKKKEEEEDEEDEEDEEEEEDEEDEEEEEDDDDE
maximal migratory response of RSMC (RSMC [2]; at 100 ng/ml, random cell migration = 100%): 2.5 fold
lowest dose stimulating migration of RSMC (RSMC [2]; concentration-dependent, overnight migration): 0.1 ng/mL

B2: E. Coli expressed recombinant-HMGB1: full-length HMGB1 expressed in E. Coli transformed with pT7-7-rHMGlcm plasmid (protein, UniProt P09429 1-215, looked up)
chain: MGKGDPKKPRGKMSSYAFFVQTCREEHKKKHPDASVNFSEFSKKCSERWKTMSAKEKGKFEDMAKADKARYEREMKTYIPPKGETKKKFKDPNAPKRPPSAFFLFCSEYRPKIKGEHPGLSIGDVAKKLGEMWNNTAADDKQPYEKKAAKLKEKYEKDIAAYRAKGKPDAAKKGVVKAEKSKKKKEEEEDEEDEEDEEEEEDEEDEDEEEDDDDE
modifications: full-length expressed in E. coli
notes: full-length HMGB1 expressed in E. Coli transformed with pT7-7-rHMGlcm plasmid
dose giving maximal migratory response of fibroblasts [3]: 100 ng/mL
migratory response of fibroblasts at higher doses ([3]; 1000 ng/ml): lower than the control
lowest dose stimulating fibroblasts migration ([3]; concentration-dependent): 0.1 ng/mL

B3: HMGB1: HMGB1 protein, 25-kD, 215 amino acids, two HMG boxes and acidic COOH terminus; preparation not specified at the place (protein, UniProt P09429 1-215, looked up)
High mobility group protein B1: B2 chain
proportion of cells in state 2 (RSMC [1]; HMGB1 100 ng/ml, after 15-30 minutes): 80%
proportion of cells in state 1 (RSMC [1]; [4]): 60%
proportion of cells in state 2 (RSMC [1]; [4]): 40%
change of RSMC morphology and cytoskeleton organization (RSMC [1]; HMGB1 100 ng/ml, within 15-30 minutes): complete change of morphology and cytoskeleton organization
proportion of cells in state 2 (RSMC [1]; HMGB1 100 ng/ml, within 5 minutes after stimulation): 60%
chemotactic effect on RSMC (in words) (RSMC [2]; overnight migration, serum-free medium): comparable in amplitude to the effects of the well characterised attractants fMLP and bFGF
activation and nuclear translocation of ERK1/2 in RSMC (phosphorylated ERK1/2; HMGB1 from calf thymus 100 ng/ml, within 30 minutes): induces the activation of ERK1/2 proteins
